Measurements taken from US20220396632A1.

T1: Scrambled Y42,52,63(SO3) PSGL-1(42-62) biotin peptide
T1 sequence (peptide, sulfotyrosine at peptide positions 1, 11 and 22; C-terminal Lys-biotin): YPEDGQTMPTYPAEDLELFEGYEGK

B1: 03D01 (antibody, IgG4, V domains shown)
VH: EVQLVQSGGGLVQPGGSLRLSCAATGFTVSRNYMTWVREAPGKGLEWVAGIYKSGTTSYIESVKGRFTISRDNSKNTLYLEMSRLRAEDTAVYYCAKSTSTWGQGTQVTVSS
VL: DVVMTQSPVSLPVTLGQPASISCRSSRNLLYSNGNTYLNWFHQRPGQSPRRLIYKVSNQDSGVPDRFSGSGSGTDFTLKISRVEAEDVGVYYCMQGTHWPTTFGQGTRLEIK
B2: 09D11 (antibody, IgG4, V domains shown)
VH: QVQLVESGGGFIQPGGSLRLSCAASGLTFSNYAMTWVRQAPGKGLEWVSTISGGGGNTYYTDSVKGRFTISRDNSKNTLYLQMNSLKAEDTAVYRCAKGLAAALFDYWGQGTLVTVSS
VL: DIVLTQSPDSLPVTPGEPASISCRSSRSLLHSNGHNFLAWYLQKPGQSPHLLIYLGSNRASGVPDRFSGSGSGTDFTLKISRVEAEDVGIYYCMQALQTPITFGQGTRLDIK
B3: 09B09 (antibody, IgG4, V domains shown)
VH: EVKLLESGGGLVQPGGSLRLSCAASGITFSTYAMMWVRQAPGKGLEWVSGISGSGASRYYADSVKGRFTISRDNSKNMLYLQMNSLRAEDTAVYYCAKKVLGRRKQYFDDWGQGTLVTVSS
VL: DIVMTQSPLSLPVTPGEPASISCRSSQSLLHSNGYNYLDWYLQRPGQSPQLLIYLGSHRASGVPDRFSGSGSGTEHTLKITTVAAEDVGVYYCMQALQSPPTFGQGTRLDIK
B4: 01A04 (antibody, IgG4, V domains shown)
VH: EVQLVQSGAEVKKPGASVKVSCKASGYTFTSYYIHWVRQAPGQGLEWMGIIRPSGGSTSYAQKFQGRVTMTRDTSTSTVYMELSSLRSEDTAMYYCARVGVGSFDYWGQGTLVTVSS
VL: DIQMTQSPSTLSASVGDRVTITCRASQSVSNWLAWYQQKPGKAPKLLIYKASSLESGVPSRFSGSGSGTEFTLTISSLQPDDFATYYCQWFRTFGPGTKVDIK

Biological target: T1, Scrambled Y42,52,63(SO3) PSGL-1(42-62) biotin peptide
Test: ELISA, immobilized biotin peptide

A450nm, 20 nM mAb	Binder
0.12 A450nm	B1
0.09 A450nm	B2
0.37 A450nm	B3
0.13 A450nm	B4
